{"source": "paper PMC3142182", "biological_target": "HCV NS5A protein, genotype 1b (hepatitis C virus genotype 1b) (UniProt Q9WMX2)", "test": "co-IP; detergent-solubilized lysates of HEK 293T cells expressing the proteins; immunoprecipitation with mAb against 1b5A, Western blot for NS5B; protocol of Qi et al. [29]; three independent experiments", "data": [{"substance": "HCV NS5B (RNA-dependent RNA polymerase), genotype 1b (Con1), full length (from UniProt Q9WMX2 2420-3010) (enzyme)", "values": [{"measurement": "fold more co-precipitated than 1bΔ21", "value": "> 2", "unit": "fold"}]}]}
